Measurements reported in patent US20160229919A1 (US Dept. of Health and Human Services, published 2016).

Experiments:
[1] = target: human transferrin receptor (human) (UniProt P02786); test: cell-based or functional assay
[2] = target: human transferrin receptor (human) (UniProt P02786); test: flow cytometry on L55 cells
[3] = target: human transferrin receptor (human) (UniProt P02786); test: flow cytometry on YOU cells
[4] = target: human transferrin receptor (human) (UniProt P02786); test: flow cytometry on EKVX cells
[5] = target: human transferrin receptor (human) (UniProt P02786); test: flow cytometry on NCI-H322M cells
[6] = target: cell-surface mesothelin on mesothelin-expressing cells (human) (UniProt Q13421); test: cell-based or functional assay
[7] = target: cell-surface mesothelin on mesothelin-expressing cells (human) (UniProt Q13421); test: flow cytometry on H9 cells
[8] = target: cell-surface mesothelin on mesothelin-expressing cells (human) (UniProt Q13421); test: flow cytometry on H9 cells; remark: listed apart in the source
[9] = target: cell-surface mesothelin on mesothelin-expressing cells (human) (UniProt Q13421); test: flow cytometry on L55 cells
[10] = target: cell-surface mesothelin on mesothelin-expressing cells (human) (UniProt Q13421); test: flow cytometry on M30 cells
[11] = target: cell-surface mesothelin on mesothelin-expressing cells (human) (UniProt Q13421); test: flow cytometry on YOU cells
[12] = target: cell-surface mesothelin on mesothelin-expressing cells (human) (UniProt Q13421); test: flow cytometry on EKVX cells
[13] = target: cell-surface mesothelin on mesothelin-expressing cells (human) (UniProt Q13421); test: flow cytometry on KMBC cells
[14] = target: cell-surface mesothelin on mesothelin-expressing cells (human) (UniProt Q13421); test: flow cytometry on KMCH cells
[15] = target: cell-surface mesothelin on mesothelin-expressing cells (human) (UniProt Q13421); test: flow cytometry on OVCAR8 cells
[16] = target: cell-surface mesothelin on mesothelin-expressing cells (human) (UniProt Q13421); test: flow cytometry on Mz-Cha-1 cells
[17] = target: cell-surface mesothelin on mesothelin-expressing cells (human) (UniProt Q13421); test: flow cytometry on NCI-H226 cells
[18] = target: cell-surface mesothelin on mesothelin-expressing cells (human) (UniProt Q13421); test: flow cytometry on NCI-H322M cells
[19] = target: cell-surface mesothelin on mesothelin-expressing cells (human) (UniProt Q13421); test: flow cytometry on NCI-ADR-RES cells
[20] = target: recombinant mesothelin protein (full-length mesothelin) (human) (UniProt Q13421); test: ELISA, mAb titrated on mesothelin (1 ug/ml), fit with Prism
[21] = target: mesothelin-Fc fusion protein (human) (UniProt Q13421); test: sandwich ELISA: YP223 capture, mesothelin-Fc titrated, biotinylated YP218 detection
[22] = target: mesothelin Region I fragment (residues 296-390) (human, UniProt Q13421 296-390); test: ELISA on mesothelin fragments
Sequence of mesothelin Region I fragment (residues 296-390) (Q13421 296-390): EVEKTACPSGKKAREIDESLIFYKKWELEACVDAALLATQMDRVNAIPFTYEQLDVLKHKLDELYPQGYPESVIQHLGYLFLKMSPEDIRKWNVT

Sequence of human transferrin receptor (human) (P02786 whole entry): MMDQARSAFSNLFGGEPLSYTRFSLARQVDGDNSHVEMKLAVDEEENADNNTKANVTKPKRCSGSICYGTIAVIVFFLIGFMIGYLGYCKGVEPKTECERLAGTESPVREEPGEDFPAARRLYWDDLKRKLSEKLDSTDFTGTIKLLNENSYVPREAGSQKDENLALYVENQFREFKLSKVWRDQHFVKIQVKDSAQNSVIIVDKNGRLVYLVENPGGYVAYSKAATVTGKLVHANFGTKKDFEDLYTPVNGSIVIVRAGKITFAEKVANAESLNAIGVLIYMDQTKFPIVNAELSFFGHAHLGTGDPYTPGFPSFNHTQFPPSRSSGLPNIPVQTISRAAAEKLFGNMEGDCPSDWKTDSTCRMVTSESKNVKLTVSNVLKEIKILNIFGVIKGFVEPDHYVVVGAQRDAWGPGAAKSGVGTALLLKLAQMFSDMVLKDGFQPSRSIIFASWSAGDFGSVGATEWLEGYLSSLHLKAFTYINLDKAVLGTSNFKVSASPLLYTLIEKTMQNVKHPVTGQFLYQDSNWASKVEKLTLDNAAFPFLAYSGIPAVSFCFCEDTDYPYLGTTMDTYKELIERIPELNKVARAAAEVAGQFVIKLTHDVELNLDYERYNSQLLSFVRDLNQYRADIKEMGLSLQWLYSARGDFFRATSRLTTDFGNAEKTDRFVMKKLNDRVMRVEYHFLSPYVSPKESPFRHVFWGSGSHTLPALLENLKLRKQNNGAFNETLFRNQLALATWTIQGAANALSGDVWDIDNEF

HB21-PE40 immunotoxin
IC50 (ng ml^-1), cytotoxicity on EKVX cells [1]: 0.21 ng/mL
IC50 (ng ml^-1), cytotoxicity on H226-GL cells [1]: 0.22 ng/mL
IC50 (ng ml^-1), cytotoxicity on L55 cells [1]: 0.57 ng/mL
IC50 (ng ml^-1), cytotoxicity on M30 cells [1]: 0.51 ng/mL
IC50 (ng ml^-1), cytotoxicity on NCI-ADR-RES cells [1]: 0.12 ng/mL
IC50 (ng ml^-1), cytotoxicity on NCI-H322M cells [1]: 0.31 ng/mL
Kd [2]: 9.74 nM
Kd [3]: 24.7 nM
Kd [4]: 6.28 nM
Kd [5]: 6.05 nM

SS1P immunotoxin
IC50 (ng ml^-1), cytotoxicity on EKVX cells [6]: 55.4 ng/mL
IC50 (ng ml^-1), cytotoxicity on H9 cells [6]: 0.076 ng/mL
IC50 (ng ml^-1), cytotoxicity on H226-GL cells [6]: 1.99 ng/mL
IC50 (ng ml^-1), cytotoxicity on KMBC cells [6]: 3.39 ng/mL
IC50 (ng ml^-1), cytotoxicity on KMCH cells [6]: 7.23 ng/mL
IC50 (ng ml^-1), cytotoxicity on L55 cells [6]: 5.89 ng/mL
IC50 (ng ml^-1), cytotoxicity on M30 cells [6]: 7.13 ng/mL
IC50 (ng ml^-1), cytotoxicity on Mz-Cha-1 cells [6]: 21.6 ng/mL
IC50 (ng ml^-1), cytotoxicity on NCI-ADR-RES cells [6]: 1.2 ng/mL
IC50 (ng ml^-1), cytotoxicity on NCI-H226 cells [6]: 5.29 ng/mL
IC50 (ng ml^-1), cytotoxicity on NCI-H322M cells [6]: 4.02 ng/mL
IC50 (ng ml^-1), cytotoxicity on OVCAR8 cells [6]: 1.82 ng/mL
IC50 (ng ml^-1), cytotoxicity on YOU cells [6]: 13 ng/mL
IC50 (ng/ml), cytotoxicity on RH16 mesothelioma patient primary cells [6]: 10.4 ng/mL
IC50 (ng/ml), cytotoxicity on RH18 mesothelioma patient primary cells [6]: > 100 ng/mL
IC50 (ng/ml), cytotoxicity on RH19 mesothelioma patient primary cells [6]: 0.63 ng/mL
IC50 (ng/ml), cytotoxicity on RH21 mesothelioma patient primary cells [6]: 0.73 ng/mL
Kd [7]: 4.82 nM
Kd [8]: 1.3 nM
Kd [9]: 1.04 nM
Kd [10]: 0.49 nM
Kd [11]: 1.48 nM
Kd [12]: 1.7 nM
Kd [13]: 2.15 nM
Kd [14]: 1.26 nM
Kd [15]: 0.6 nM
Kd [16]: 1.3 nM
Kd [17]: 1.49 nM
Kd [18]: 0.44 nM
Kd [19]: 1.41 nM

B1: YP223 rabbit monoclonal antibody (antibody, V domains shown)
VH: QEQLEESGGDLVQPEGSLTLTCKASGLDFSSSYWICWVRQAPGKGLEWIGCRHTFTANTWSASWVNGRFTISRSTSLGTVDLKMTSLTAADTATYFCARDESNNDGWDFKLWGPGTLVTVSS
VL: AYDMTQTPASVSAAVGGTVTIKCQASQSISNYLAWYQQKPGQPPKLLIYQASTLAPGVSSRFKGSGSGTEFTLTISGVECADAATYYCQQGYTSSNVENVFGGGTGVVV
Kd [20]: 0.65 nM
EC50 [21]: 0.5 nM

B2: YP218 rabbit monoclonal antibody (antibody, V domains shown)
VH: QQQLEESGGGLVKPEGSLTLTCKASGFDLGFYFYACWVRQAPGKGLEWIACIYTAGSGSTYYASWAKGRFTISKASSTTVTLQMTSLAAADTATYFCARSTANTRSTYYLNLWGPGTLVTVSS
VL: DVVMTQTPASVSEPVGGTVTIKCQASQRISSYLSWYQQKPGQRPKLLIFGASTLASGVPSRFKGSGSGTEYTLTISDLECADAATYYCQSYAYFDSNNWHAFGGGTEVVV
Kd [20]: 0.91 nM

B3: YP3 rabbit monoclonal antibody (antibody, V domains shown)
VH: QEQLVESGGGLVQPGASLTLTCTASGIDFSRYYMCWVRQAPGKGLEGIACIYIGGSGSTYYASWAKGRFTISKASSTTVTLQMTSLTAADTATYFCARGTNLNYIFRLWGPGTLVTVSS
VL: DVVMTQTPSPVSAAVGGTVTIKCQASQSINNGLAWYQQKPGQPPRLLIYSASNLESGVPSRFKGSGSGTEFTLTISDLECDDAATYYCQCIWDGNSYVNAFGGGTEVVV
Kd [20]: 0.42 nM

B4: YP158 rabbit monoclonal antibody (antibody, V domains shown)
VH: QSLEESGGDLVKPGASLTLTCTASGFSFSGDYYMCWVRQAPGKGLEWIACIGGGSNTATYYATWAKGRFTISKTSSTTVTLQMTSLTAADTATYFCARDLGFVDYALELWGPGTLVTVSS
VL: DIVMTQTPASVEVAVGGTVTIKCQASENMYNSLAWYQQKPGQPPKLLIYRASTLESGVPSRFKGSGSGTEYTLTISDLECADAATYYCQCTFYSHNNNYGGAFGGGTEVVV
notes: Rabbit hybridoma mAb (rabbit IgG)
binding result [22]: binds
